Legend:
Prp43-Strep = Prp43-Strep (Saccharomyces cerevisiae S288c, UniProt P53131 1-767); assay: UV cross-linking
[1] = biological target: Prp43-Strep;Strep-Ntr1(1-120) (Saccharomyces cerevisiae …, UniProt P53131;Q06411 1-767;1-120, |); assay: UV cross-linking
Chain of Prp43-Strep;Strep-Ntr1(1-120) (P53131 whole entry, chain 1 of 2): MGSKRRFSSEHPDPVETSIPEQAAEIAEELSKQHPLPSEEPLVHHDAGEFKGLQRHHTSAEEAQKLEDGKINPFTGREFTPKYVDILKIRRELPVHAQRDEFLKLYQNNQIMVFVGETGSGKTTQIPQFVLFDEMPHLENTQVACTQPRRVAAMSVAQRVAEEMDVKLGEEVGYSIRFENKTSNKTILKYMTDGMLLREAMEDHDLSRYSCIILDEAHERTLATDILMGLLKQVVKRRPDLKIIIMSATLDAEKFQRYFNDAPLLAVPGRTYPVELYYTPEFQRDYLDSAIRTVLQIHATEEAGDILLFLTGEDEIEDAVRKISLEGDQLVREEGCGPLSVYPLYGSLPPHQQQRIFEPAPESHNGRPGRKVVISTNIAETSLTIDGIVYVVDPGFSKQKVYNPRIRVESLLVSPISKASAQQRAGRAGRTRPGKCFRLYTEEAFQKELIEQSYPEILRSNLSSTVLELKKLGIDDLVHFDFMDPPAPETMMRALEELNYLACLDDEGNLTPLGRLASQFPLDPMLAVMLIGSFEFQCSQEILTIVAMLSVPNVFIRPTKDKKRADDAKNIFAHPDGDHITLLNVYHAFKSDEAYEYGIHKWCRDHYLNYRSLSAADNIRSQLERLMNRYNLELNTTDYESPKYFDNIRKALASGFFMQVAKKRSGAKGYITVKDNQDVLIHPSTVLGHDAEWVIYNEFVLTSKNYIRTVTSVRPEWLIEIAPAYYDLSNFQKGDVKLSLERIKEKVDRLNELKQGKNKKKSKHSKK
Chain of Prp43-Strep;Strep-Ntr1(1-120) (Q06411 1-120, chain 2 of 2): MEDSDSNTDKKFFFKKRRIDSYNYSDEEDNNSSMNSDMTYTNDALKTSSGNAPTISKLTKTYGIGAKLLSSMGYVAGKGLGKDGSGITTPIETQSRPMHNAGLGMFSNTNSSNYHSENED

Chain of Prp43-Strep (P53131 whole entry): as the sequence (P53131 whole entry, chain 1 of 2) above

GACGGGCUGUUGGUGAUGGAC (ssRNA) [21-mer ssRNA]: binds (Prp43-Strep); binds [1].
